Measured values: patent US20020110800A1, “Use of SHP-1 and SHP-2 to detect compounds involved in neuronal survival” (McGill University, priority 1997, published 2002)

Test system: SHP-2
Assay: BDNF-stimulated association of SHP-2 with tyrosine-phosphorylated proteins in cortical neurons
Type: cell-based, rat
From the text: FIG. 5 is a Western blot showing that BDNF stimulates the association of SHP-2 with tyrosine phosphorylated proteins in cortical neurons. Lysates prepared from cortical neurons treated with or without BDNF were immunoprecipitated with anti-SHP-2 antibody and probed with anti-pTyr antibody.
To determine the mechanism whereby the neutrotrophins stimulate the survival and growth of normal and injured neurons, we have asked whether the phosphoprotein phosphatases SHP-1 and SHP-2 play a role in the differentiation and survival of primary neurons, focusing our studies on cultured rat sympathetic cervical ganglion (SCG) and cortical neurons in order to determine the exact nature of this regulation.
Immunoprecipitations and immunoblotting were performed as previously described (Kaplan et al., Science, 252:554-558, 1991). […]

B1: BDNF: brain-derived neurotrophic factor, a neurotrophin, obtained from Peprotech (protein, UniProt P23560 19-247, looked up)
Neurotrophic factor BDNF …: APMKEANIRGQGGLAYPGVRTHGTLESVNGPKAGSRGLTSLADTFEHVIEELLDEDQKVRPNEENNKDADLYTSRVMLSSQVPLEPPLLFLLEEYKNYLDAANMSMRVRRHSDPARRGELSVCDSISEWVTAADKKTAVDMSGGTVTVLEKVPVSKGQLKQYFYETKCNPMGYTKEGCRGIDKRHWNSQCRTTQSYVRALTMDSKKRIGWRFIRIDTSCVCTLTIKRGR
  association of tyrosine-phosphorylated proteins with SHP-2: causes the association of tyrosine-phosphorylated proteins with SHP-2
